Measured values published in patent US9872922B2, “Anti-EFNA4 antibody-drug conjugates” (PFIZER, INC., priority 2013, dated 2018).
One block for each molecule: values may come before it.

Target: T1, human Ephrin-A4 (Homo sapiens, UniProt P52798)
T1 construct: purchased
T1 sequence (P52798 26-170): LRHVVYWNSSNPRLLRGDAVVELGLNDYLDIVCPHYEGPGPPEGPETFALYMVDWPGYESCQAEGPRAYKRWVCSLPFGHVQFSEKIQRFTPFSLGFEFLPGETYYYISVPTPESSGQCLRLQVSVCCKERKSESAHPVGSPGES
Assay: SPR steady state affinity of Eph receptors for Ephrin-A4
Format: binding
Conditions: for Kd: SPR BIAcore 2000, steady state affinity fit, captured Eph receptor, monomeric human Ephrin-A4 as analyte; for rank of affinity for Ephrin-A4 among nine Eph receptors: steady state affinity
Method: The properties of Ephrin-A4 binding to Eph receptors were further analyzed. Since anti-EFNA4 antibodies bind to Ephrin-A4 while the ligand is engaged with its Eph receptor, the affinity between these two macromolecules was determined. The affinities of commercially available Eph receptors and Ephrin-A4 were directly compared by surface plasmon resonance using a BIAcore 2000 (GE Healthcare) to determine the most relevant receptor. An anti-human antibody capture kit was used to immobilize recombinant Eph receptors on a CM5 biosensor chip. Prior to each antigen injection cycle, Eph receptors at the concentration of 2 μg/mL were captured on the surface with a contact time of 2 minutes and a flow rate of 5 μL/min. The captured antibody loading from baseline was constant at 150-260 response units. Following receptor capture and 1 min baseline, monomeric human Ephrin-A4 was flowed over the surface at concentrations of 400, 241, 145, 87, 53, 32, 19 and 12 nM for a 2 minute association phase followed by a 2 minute dissociation phase at a flow rate of 10 μL/min. Following each cycle, the anti-human capture surface was regenerated with 30 seconds contact time of 3M MgCl2 at 10 μL/min.
Biacore data was processed by initially calculating an average of the response at equilibrium (Req). The Req was then plotted versus concentration (M) and the steady state affinity fit was used to calculate the affinity and theoretical Rmax. In all cases, at least 5 different analyte concentrations were used to make this calculation. All data analysis steps were completed in BiaEvaluation Software 3.1 (GE Healthcare).

Kd: 31 nM
rank of affinity for Ephrin-A4 among nine Eph receptors: highest affinity
Molecule: EphA2: recombinant Eph receptor captured on biosensor chip [reference compound]

Kd: 135 nM
B1: EphB2 (protein)
chain: VEETLMDSTTATAELGWMVHPPSGWEEVSGYDENMNTIRTYQVCNVFESSQNNWLRTKFIRRRGAHRIHVEMKFSVRDCSSIPSVPGSCKETFNLYYYEADFDSATKTFPNWMENPWVKVDTIAADESFSQVDLGGRVMKINTEVRSFGPVSRSGFYLAFQDYGGCMSLIAVRVFYRKCPRIIQNGAIFQETLSGAESTSLVAARGSCIANAEEVDVPIKLYCNGDGEWLVPIGRCMCKAGFEAVENGTVCRGCPSGTFKANQGDEACTHCPINSRTTSEGATNCVCRNGYYRADLDPLDMPCTTIPSAPQAVISSVNETSLMLEWTPPRDSGGREDLVYNIICKSCGSGRGACTRCGDNVQYAPRQLGLTEPRIYISDLLAHTQYTFEIQAVNGVTDQSPFSPQFASVNITTNQAAPSAVSIMHQVSRTVDSITLSWSQPDQPNGVILDYELQYYEKELSEYNATAIKSPTNTVTVQGLKAGAIYVFQVRARTVAGYGRYSGKMYFQTMTEAEYQTSIQEKLPL

Kd: 77 nM
B2: EphA3 (protein)
chain: ELIPQPSNEVNLLDSKTIQGELGWISYPSHGWEEISGVDEHYTPIRTYQVCNVMDHSQNNWLRTNWVPRNSAQKIYVELKFTLRDCNSIPLVLGTCKETFNLYYMESDDDHGVKFREHQFTKIDTIAADESFTQMDLGDRILKLNTEIREVGPVNKKGFYLAFQDVGACVALVSVRVYFKKCPFTVKNLAMFPDTVPMDSQSLVEVRGSCVNNSKEEDPPRMYCSTEGEWLVPIGKCSCNAGYEERGFMCQACRPGFYKALDGNMKCAKCPPHSSTQEDGSMNCRCENNYFRADKDPPSMACTRPPSSPRNVISNINETSVILDWSWPLDTGGRKDVTFNIICKKCGWNIKQCEPCSPNVRFLPRQFGLTNTTVTVTDLLAHTNYTFEIDAVNGVSELSSPPRQFAAVSITTNQAAPSPVLTIKKDRTSRNSISLSWQEPEHPNGIILDYEVKYYEKQEQETSYTILRARGTNVTISSLKPDTIYVFQIRARTAAGYGTNSRKFEFETSPDSFSISGESSQ

Kd: 431 nM
rank of affinity for Ephrin-A4 among nine Eph receptors: lowest affinity
B4: EphA10: recombinant Eph receptor captured on biosensor chip (protein)
chain: EEVILLDSKASQAELGWTALPSNGWEEISGVDEHDRPIRTYQVCNVLEPNQDNWLQTGWISRGRGQRIFVELQFTLRDCSSIPGAAGTCKETFNVYYLETEADLGRGRPRLGGSRPRKIDTIAADESFTQGDLGERKMKLNTEVREIGPLSRRGFHLAFQDVGACVALVSVRVYYKQCRATVRGLATFPATAAESAFSTLVEVAGTCVAHSEGEPGSPPRMHCGADGEWLVPVGRCSCSAGFQERGDFCEACPPGFYKVSPRRPLCSPCPEHSRALENASTFCVCQDSYARSPTDPPSASCTRPPSAPRDLQYSLSRSPLVLRLRWLPPADSGGRSDVTYSLLCLRCGREGPAGACEPCGPRVAFLPRQAGLRERAATLLHLRPGARYTVRVAALNGVSGPAAAAGTTYAQVTVSTGPGAPWEEDEIRRDRVEPQSVSLSWREPIPAGAPGANDTEYEIRYYEKGQSEQTYSMVKTGAPTVTVTNLKPATRYVFQIRAASPGPSWEAQSFNPSIEVQTLGEAASGSRDQSPA

Kd: 82 nM
B6: EphA6 (protein)
chain: WPGDCSHVSNNQVVLLDTTTVLGELGWKTYPLNGWDAITEMDEHNRPIHTYQVCNVMEPNQNNWLRTNWISRDAAQKIYVEMKFTLRDCNSIPWVLGTCKETFNLFYMESDESHGIKFKPNQYTKIDTIAADESFTQMDLGDRILKLNTEIREVGPIERKGFYLAFQDIGACIALVSVRVFYKKCPFTVRNLAMFPDTIPRVDSSSLVEVRGSCVKSAEERDTPKLYCGADGDWLVPLGRCICSTGYEEIEGSCHACRPGFYKAFAGNTKCSKCPPHSLTYMEATSVCQCEKGYFRAEKDPPSMACTRPPSAPRNVVFNINETALILEWSPPSDTGGRKDLTYSVICKKCGLDTSQCEDCGGGLRFIPRHTGLINNSVIVLDFVSHVNYTFEIEAMNGVSELSFSPKPFTAITVTTDQDAPSLIGVVRKDWASQNSIALSWQAPAFSNGAILDYEIKYYEKEHEQLTYSSTRSKAPSVIITGLKPATKYVFHIRVRTATGYSGYSQKFEFETGDETSDMAAEQGQILV

The remaining lines, values behind:

B3: EphA1 (protein)
chain: KEVTLMDTSKAQGELGWLLDPPKDGWSEQQQILNGTPLYMYQDCPMQGRRDTDHWLRSNWIYRGEEASRVHVELQFTVRDCKSFPGGAGPLGCKETFNLLYMESDQDVGIQLRRPLFQKVTTVAADQSFTIRDLVSGSVKLNVERCSLGRLTRRGLYLAFHNPGACVALVSVRVFYQRCPETLNGLAQFPDTLPGPAGLVEVAGTCLPHARASPRPSGAPRMHCSPDGEWLVPVGRCHCEPGYEEGGSGEACVACPSGSYRMDMDTPHCLTCPQQSTAESEGATICTCESGHYRAPGEGPQVACTGPPSAPRNLSFSASGTQLSLRWEPPADTGGRQDVRYSVRCSQCQGTAQDGGPCQPCGVGVHFSPGARGLTTPAVHVNGLEPYANYTFNVEAQNGVSGLGSSGHASTSVSISMGHAESLSGLSLRLVKKEPRQLELTWAGSRPRSPGANLTYELHVLNQDEERYQMVLEPRVLLTELQPDTTYIVRVRMLTPLGPGPFSPDHEFRTSPPVSRGLTGGE
Kd: 414 nM

B5: EphA7 (protein)
chain: QAAKEVLLLDSKAQQTELEWISSPPNGWEEISGLDENYTPIRTYQVCQVMEPNQNNWLRTNWISKGNAQRIFVELKFTLRDCNSLPGVLGTCKETFNLYYYETDYDTGRNIRENLYVKIDTIAADESFTQGDLGERKMKLNTEVREIGPLSKKGFYLAFQDVGACIALVSVKVYYKKCWSIIENLAIFPDTVTGSEFSSLVEVRGTCVSSAEEEAENAPRMHCSAEGEWLVPIGKCICKAGYQQKGDTCEPCGRGFYKSSSQDLQCSRCPTHSFSDKEGSSRCECEDGYYRAPSDPPYVACTRPPSAPQNLIFNINQTTVSLEWSPPADNGGRNDVTYRILCKRCSWEQGECVPCGSNIGYMPQQTGLEDNYVTVMDLLAHANYTFEVEAVNGVSDLSRSQRLFAAVSITTGQAAPSQVSGVMKERVLQRSVELSWQEPEHPNGVITEYEIKYYEKDQRERTYSTVKTKSTSASINNLKPGTVYVFQIRAFTAAGYGNYSPRLDVATLEEATGKMFEATAVSSEQNPV
Kd: 86 nM

B7: EphB3 (protein)
chain: GCRALEETLMDTKWVTSELAWTSHPESGWEEVSGYDEAMNPIRTYQVCNVRESSQNNWLRTGFIWRRDVQRVYVELKFTVRDCNSIPNIPGSCKETFNLFYYEADSDVASASSPFWMENPYVKVDTIAPDESFSRLDAGRVNTKVRSFGPLSKAGFYLAFQDQGACMSLISVRAFYKKCASTTAGFALFPETLTGAEPTSLVIAPGTCIPNAVEVSVPLKLYCNGDGEWMVPVGACTCATGHEPAAKESQCRPCPPGSYKAKQGEGPCLPCPPNSRTTSPAASICTCHNNFYRADSDSADSACTTVPSPPRGVISNVNETSLILEWSEPRDLGGRDDLLYNVICKKCHGAGGASACSRCDDNVEFVPRQLGLTERRVHISHLLAHTRYTFEVQAVNGVSGKSPLPPRYAAVNITTNQAAPSEVPTLRLHSSSGSSLTLSWAPPERPNGVILDYEMKYFEKSEGIASTVTSQMNSVQLDGLRPDARYVVQVRARTVAGYGQYSRPAEFETTSERGSGAQQLQEQLPL
Kd: 108 nM
